US20240124857A1, “COMPOSITION FOR GUT HEALTH” (DUPONT NUTRITION BIOSCIENCES APS, priority 2021, published 2024)
Where a chain is given by its changes, count along the chain named. Names may count otherwise. Blank lines part the entries; values can stand above or below the molecule they belong to.

Experiments:
[1] = Enzyme acid resistance: residual activity on ATP after incubation at pH 2; type: physicochemical; details: FIG. 4; for stability in acid resistance assay: pH 2 for 15 or 60 min
Experimental: Enzyme acid resistance: Candidate enzymes were tested for their ability to resist inactivation at low pH by incubating the enzymes in an “acid buffer” of 50 mM glycine and 5 mM CaCl2 at pH 2 for 15 or 60 minutes and comparing their activity to enzymes in a “control buffer” at their optimum pH. The optimum buffer for CRC21323 and CRC21322 was 50 mM acetate pH 4.5 with 5 mM CaCl2. The optimum buffer for all other enzymes was 50 mM bis-Tris pH 6.5 with 5 mM CaCl2. After incubating in the acidic glycine buffer, the enzyme mixtures were neutralized by mixing with an equal volume of neutralization buffer. The neutralization buffer for CRC21323 and CRC21322 was 100 mM acetate and 10 mM CaCl2 at pH 4.5. The neutralization buffer for the other enzymes was 100 mM bis-Tris and 10 mM CaCl2 at pH 6.5. Next, the acid-stressed and control enzyme were tested for their ability to release phosphate from ATP using the reaction conditions and malachite green assay as described in with the following changes. The only substrate tested was ATP. CRC21323 and CRC21322 were tested with a buffer of acetate pH 4.5, but all other enzymes were tested in a buffer of bis-Tris pH 6.5. After determining the concentration of phosphate in each reaction, the residual activity of each enzyme after 15 or 60 min incubation in the “acid buffer” was calculated by dividing the acid-stressed by the control enzyme phosphate concentrations for each enzyme.

[2] = system: Acute DSS colitis in C57BL/6 mice; assay: Chemically-induced DSS colitis mouse model, disease activity index (DAI); type: in vivo
From the text: Acute DSS colitis was induced in C57BL/6 mice according to the previously published method with minor modification (Sann et al., 2013, Life Sci. April 9; 92(12):708-18). The mice were fed 3% (w/v) DSS dissolved in the drinking water on day one to day five. Fresh DSS solution was provided every other day. Control mice (Group 1) drank only distilled water. Groups 4 to 8 received candidate acid phosphatase enzymes by oral gavage and groups 9 to 12 received enzymes via catheter (Table 2). DAI was calculated as described earlier (Cooper et al., 1993, Laboratory investigation; a journal of technical methods and pathology. 69(2):238-49).

[3] = ATPase activity at 0.05 ppm enzyme on 0.1 mM ATP (absorbance 620 nm); type: biochemical; details: for Activity on ATP (absorbance at 620 nm, blank subtracted), pH 5.0: 50 mM IVIES buffer pH 5; for Activity on ATP (absorbance at 620 nm, blank subtracted), pH 6.0: 50 mM IVIES buffer pH 6
Experimental: Enzyme activity towards ATP or ADP at pH 3 to 9: The ability of candidate enzymes to degrade ATP or ADP to AMP and free phosphate (Pi) was measured using a standard malachite green phosphate detection kit (Sigma Aldrich cat no. MAK307). The enzyme reactions were carried out in 96-well plates with a total volume of 150 μL and contained 250 μM of a substrate, 50 mM of a buffer, 5 mM CaCl2, and a variable concentration of enzyme. The substrate was ATP or ADP. The buffer was glycine (pH 3), acetate (pH 4, 4.5, 5), bis-Tris (pH 5.5, 6, 6.5), or Tris (pH 7, 8, 9). The concentration of enzyme varied from about 1 μg/mL to 1 ng/mL and was adjusted based on the activity of the enzyme so that the amount of phosphate released during the assay was with the dynamic range of the assay (5-100 μM phosphate). The enzyme concentration was determined by the absorbance at 280 nm and using the predicted molecular weight and molar extinction coefficient to calculate the concentration. The enzyme reaction was initiated by the addition of 15 μL enzyme with 135 μL of the other reaction components such that the final reaction composition was as previously described. The reaction was stopped after 5 min by mixing 80 μL of the reaction mixture with 20 μL of the malachite green working reagent. The malachite green working reagent was prepared according to the manufacturer's protocol by mixing 100 parts reagent A with 1 part reagent B. Phosphate standard solutions (0-80 μM) and a negative control reaction without enzyme were also mixed with the malachite green working reagent. All samples were tested in duplicate. The malachite green reaction mixture was allowed to rest at room temperature for 45-60 min and the absorbance at 620 nm was measured. Lastly, the absorbance of the phosphate standards were used to convert the absorbance readings of each sample into phosphate concentrations and the negative control was subtracted from each reaction.
Enzymes of interest were assayed against ATP substrate. The ATPase activity was measured at 0.05 ppm concentration in 50 mM IVIES buffer pH 6 and pH 5 with 0.1 mM ATP as substrate as described in Example 1. Commercial potato apyrase was used as reference. The absorbance at 620 nm was measured and the absorbance of a blank sample (water) was subtracted from each sample.

[4] = Enzyme substrate specificity on nucleotide substrates (malachite green assay); type: biochemical; details: FIG. 3; bis-Tris pH 6.5 (CRC21323, CRC21322 acetate pH 4.5; CD39 pH 7)
Experimental: Enzyme activity towards ATP or ADP at pH 3 to 9: The ability of candidate enzymes to degrade ATP or ADP to AMP and free phosphate (Pi) was measured using a standard malachite green phosphate detection kit (Sigma Aldrich cat no. MAK307). The enzyme reactions were carried out in 96-well plates with a total volume of 150 μL and contained 250 μM of a substrate, 50 mM of a buffer, 5 mM CaCl2, and a variable concentration of enzyme. The substrate was ATP or ADP. The buffer was glycine (pH 3), acetate (pH 4, 4.5, 5), bis-Tris (pH 5.5, 6, 6.5), or Tris (pH 7, 8, 9). […] The enzyme concentration was determined by the absorbance at 280 nm and using the predicted molecular weight and molar extinction coefficient to calculate the concentration. […] The malachite green reaction mixture was allowed to rest at room temperature for 45-60 min and the absorbance at 620 nm was measured. Lastly, the absorbance of the phosphate standards were used to convert the absorbance readings of each sample into phosphate concentrations and the negative control was subtracted from each reaction.
Enzyme substrate specificity: The activity of the enzymes on different nucleotide substrates was tested using the malachite green assay. […] After converting the absorbance to phosphate concentration, the activity of each enzyme was set relative to the activity on ATP.

[5] = Relative activity on ATP of CRC22110 single-site variants; type: biochemical; details: in comparison to CRC22110 wild type

- Activity on ATP (absorbance at 620 nm, blank subtracted), pH 5.0 [3]: 0.39
- Activity on ATP (absorbance at 620 nm, blank subtracted), pH 6.0 [3]: 0.10
B1: CRC21323: Acid phosphatase (Class A), accession WP_054306375.1, SEQ ID NO:18 (predicted mature), SEQ ID NO:2 (protein, listed as Serratia rubidaea)
chain: AQTPGFLTPETAPDSLQILPPPPAENTTAFLNDKAAYETGKTLKDAQRQALAASDADYKNISAAFSAAFGEEISPEKTPALYALLQGVLQDSHDYAMRAAKDHYMRVRPFVVYKDSTCTPEKDKSMAKTGSYPSGHASFGWATALVLTEINPARETEILKRGYDFGQSRVVCGAHWQSDVDNGRLMGAAVVAALHGNQGFNDALAKAKAEFAKR
- stability in acid resistance assay [1]: least stable
- reduction in DAI score compared to control ([2]; catheterized mice, test items via cecum BID, FIG. 6A, 6B): 40%
- improvement in DAI score compared to control ([2]; non-catheterized mice, oral gavage BID, FIG. 5A, 5B): 43%

- Activity on ATP (absorbance at 620 nm, blank subtracted), pH 5.0 [3]: 0.40
- Activity on ATP (absorbance at 620 nm, blank subtracted), pH 6.0 [3]: 0.07
B2: CRC21322: Acid phosphatase (Class A), accession AEG96708.1, SEQ ID NO:17 (protein)
chain: KENKGFLNADTSPDSLAILPPPPTENSVAFLQDKADYETGRVLKNKERTELAAKDANYKNFGQAFSEAFGMVISAERTPVLYLLLSEVLQDSHDYAMRSAKDHYMRVRPFVLYKNPTCTPEKDDKMAKTGSYPSGHASFGWAAALVLAEINPARETEILKRGMDFGESRVVCGAHWQSDVDSGRIMGAAVVAALHANPRFANTLSEAKKEFAALSAKSE
modifications: Klebsiella aerogenes
- stability in acid resistance assay [1]: least stable

- Activity on ATP (absorbance at 620 nm, blank subtracted), pH 5.0 [3]: 0.45
- Activity on ATP (absorbance at 620 nm, blank subtracted), pH 6.0 [3]: 0.27
B3: CRC21328: GDA1/CD39 family enzyme, accession CCD05982.1, SEQ ID NO:6 (protein, listed as Legionella pneumophila)
chain: DTNPCEKHSCIAVIDAGSTGSRLHIYSYDTDNTNTPIHIEEIWNKKIKPGFASIQPNSVTIDAYLTMLLADAPIHNIPVYFYATAGMRLLPQSQQKKYYDELEYWFRQQSQWQLVEAKTITGNDEALFDWLAVNYKLDTLKSVQNKSVGVMDMGGASVQIVFPMPKNAEISKHNQVELNIYGQNINLYVHSFLGLGQTEMSHQFLNSPSCFANDYPLPDGESGQGNAPSCKEEVTSLMNSVHKVNQQIQPLLALNPVNEWYSIGGISNLASSQLFHFENSELTNQSLLQQGDNQICHQQWDILNGQYPDDEYLYQYCLLSSYYYALMVDGYGINPNQTIHYIPPEQNLDWTIGVVLHRA
- residual activity after incubation at pH 2 ([1]; 60 min in acid buffer, 50 mM glycine, 5 mM CaCl2): greatest resistance

- Activity on ATP (absorbance at 620 nm, blank subtracted), pH 5.0 [3]: 0.26
- Activity on ATP (absorbance at 620 nm, blank subtracted), pH 6.0 [3]: 0.28
B4: CRC22105: GDA1/CD39 family enzyme, accession WP_045094910.1, SEQ ID NO:8 (protein, listed as Legionella fallonii)
chain: ENASCDKHQCITVIDAGSTGSRVHIYAYDLDETNTPTNINEIWTKKIKPGFATIDPNYNTIDAYLTILLSGAPTQQGPVYFYATAGMRLLPASKQKLYYQELQRWFTQQTQWHFVEAKTITGNEEALYDWLSVNYHLGTLKSVQNKAIGVMDMGGASVQIVFPIQKNENIHGRSQVELNIYGQRINLFVHSFLGLGQTEMSHQFLNSTSCFTNDYPLPDGEMGLGNALSCEQEVSSLMNAVHGVSKTIQPVLAANSVDSWYAIGGLTNLADNKLFNFVNGQLTNQSLIEQADSQICHQQWSKLDAQYPNDDYIYGYCLFSSYFYALMVDGYGISPEQTVNYISPSINLDWTKGVVLHHLS
- activity on different nucleotide substrate relative to ATP [4]: noticeably reduced activity on UTP/UDP and CTP/CDP

B5: CRC22110v9: single-site variant F205L of CRC22110 (SEQ ID NO: 9) (protein, listed as Gallaecimonas xiamenensis)
chain: ADKPACRAVFDAGSSGTRLFLYVQQEGGWQPWPGAKLGALADPVRQHQGPKAMAALAADLANSLEALRQDGPTNSEGQPRWQGFDWQQACRLQSVSVLATAGMRLAEQQDPVASVALWQEVQQALAGLLGPAVAIDARTLTGFEEGFYAWLAARARLGRSDMGIVEMGGASSQVAFPCPACDRADDAVQQVRLEGQTLDFYSYSLLGLGQDEAPKVLGVPHACRYGAGVKDPNWQLGQCQAQLPLTLGRALKDPYNFQGQGQGGYRQVPTEKAGVKDWLLTGAFQYNTPDQLDSCCLNQGQCYQPSTACFRVAYLPLYLDSLGVDPHSPDLDVSWTLGAVLCRNEQCLAPSKPPCRWRKAGCLAPSVGDGRPEGRPGQQPGGVQHRQH
- Relative activity (%) on ATP [5]: 68%

B6: CRC22110v5: single-site variant G209A of CRC22110 (SEQ ID NO: 9) (protein, listed as Gallaecimonas xiamenensis)
chain: B5 chain with L205F, G209A
- Relative activity (%) on ATP [5]: 16%

B7: CRC22110v2: single-site variant L206A of CRC22110 (SEQ ID NO: 9) (protein, listed as Gallaecimonas xiamenensis)
chain: B5 chain with L205F, L206A
- Relative activity (%) on ATP [5]: 60%

B8: CRC22110v3: single-site variant G207A of CRC22110 (SEQ ID NO: 9) (protein, listed as Gallaecimonas xiamenensis)
chain: B5 chain with L205F, G207A
- Relative activity (%) on ATP [5]: 60%

B9: CRC22110v1: single-site variant S204A of CRC22110 (SEQ ID NO: 9) (protein, listed as Gallaecimonas xiamenensis)
chain: B5 chain with S204A, L205F
- Relative activity (%) on ATP [5]: 37%

B10: CRC22110v10: single-site variant L206I of CRC22110 (SEQ ID NO: 9) (protein, listed as Gallaecimonas xiamenensis)
chain: B5 chain with L205F, L206I
- Relative activity (%) on ATP [5]: 16%

B11: CRC22110v7: single-site variant S204T of CRC22110 (SEQ ID NO: 9) (protein, listed as Gallaecimonas xiamenensis)
chain: B5 chain with S204T, L205F
- Relative activity (%) on ATP [5]: 53%

B12: CRC22110v4: single-site variant L208A of CRC22110 (SEQ ID NO: 9) (protein, listed as Gallaecimonas xiamenensis)
chain: B5 chain with L205F, L208A
- Relative activity (%) on ATP [5]: 74%
